Entries after “also recorded” stand apart in the source; their conditions may differ.
Assays:
SHP2 = target: T1, SHP2 (Rattus norvegicus, UniProt P41499); experiment: von Frey filament test after intrathecal netrin-4 mixed with SHP inhibitor; type: in vivo; details: inhibitor 1 mM mixed with netrin-4 40 ng/μL, 10 μL intrathecal; for change in withdrawal threshold after administration of mixture with netrin-4: 12, 24 and 48 hours; for degree of reduction in withdrawal threshold at 24 hours after administration: vs netrin-4 alone
T1 construct: SHP2 is expressed in the neurons of the dorsal horn of the spinal cord; from tissue; host or cells: spinal cord of living rats (in vivo, intrathecal administration)
T1 sequence (P41499 1-593): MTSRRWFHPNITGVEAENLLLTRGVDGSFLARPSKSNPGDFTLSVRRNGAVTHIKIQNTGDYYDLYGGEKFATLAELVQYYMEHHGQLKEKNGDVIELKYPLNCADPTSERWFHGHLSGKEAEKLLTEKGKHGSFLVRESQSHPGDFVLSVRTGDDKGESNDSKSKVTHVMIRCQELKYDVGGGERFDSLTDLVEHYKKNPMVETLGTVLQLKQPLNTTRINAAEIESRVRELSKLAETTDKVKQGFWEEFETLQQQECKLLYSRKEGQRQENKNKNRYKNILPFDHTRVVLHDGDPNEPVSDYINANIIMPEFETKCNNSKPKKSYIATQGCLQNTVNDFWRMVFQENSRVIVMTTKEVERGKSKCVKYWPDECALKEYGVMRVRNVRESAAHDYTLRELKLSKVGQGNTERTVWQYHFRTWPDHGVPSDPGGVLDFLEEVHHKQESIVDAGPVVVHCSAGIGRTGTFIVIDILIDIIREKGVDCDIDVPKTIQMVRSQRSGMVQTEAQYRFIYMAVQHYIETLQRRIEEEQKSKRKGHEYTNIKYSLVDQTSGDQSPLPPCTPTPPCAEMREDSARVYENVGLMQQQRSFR
Method: (§1) The von Frey filament test was used to measure the response to mechanical stimuli. Before the test, a plastic case was set onto a metallic mesh, and the pain model rat was put into the plastic case and acclimated to the environment for 5 to 10 minutes until settled. A filament (Semmes-Weinstein Von Frey Anesthesiometer, Muromachi Kikai Co., Ltd.) was applied to the center of the plantar surface of the hindpaw for 3 to 5 seconds, and the threshold for hindpaw withdrawal (g) was measured. After the measurement of the withdrawal thresholds of both the paws was completed, the animal used was identified from the ear tag and then returned to a breeding cage.
(§2) A purified netrin-4 protein (R&D) was dissolved in physiological saline to give a 40 ng/μL netrin-4 solution. […] (Calbiochem), an inhibitor of SHPs, was dissolved at a concentration of 50 mM in sterilized water and kept refrigerated until use. The solution was diluted 50-fold with physiological saline before use. PTPi4 (bis(4-trifluoromethylsulfonamidophenyl)-1,4-diisopropylben zene, Protein Tyrosine Phosphatase Inhibitor IV, Calbiochem), an inhibitor of SHP2, was dissolved at a concentration of 16.4 mM in DMSO (dimethyl sulfoxide, Sigma-Aldrich) and kept refrigerated until use. The solution was diluted to a final concentration of 1 mM with physiological saline before use.
In order to clarify whether the activation of SHP2 is required for the action of netrin-4 on the potentiation of nociceptive response, it was examined whether intrathecal administration of a SHPs inhibitor, NSC87877, or a SHP2 inhibitor, PTPi4 (bis(4-trifluoromethylsulfonamidophenyl)-1,4-diisopropylben zene, Protein Tyrosine Phosphatase Inhibitor IV), would cancel the effect of intrathecal administration of netrin-4. NSC87877 (final concentration: 1 mM) or PTPi4 (final concentration: 1 mM) was mixed with netrin-4 (final concentration: 40 ng/μL , and 10 uL of the mixture was infused from the rear end of the polyethylene tube retained in the medullary cavity. The von Frey filament test was conducted at 12, 24 and 48 hours after the administration to examine the change in withdrawal threshold.

[1] = tested on: neurons in the dorsal horn of the spinal cord (c-fos); experiment: Immunostaining of c-fos in lumbar cord tissue after intrathecal netrin-4; type: in vivo, rat; details: lumbar cord tissue 48 hours after intrathecal administration, vs physiological saline
Method: (§3) Rat tissue fixation was performed by perfusion under deep anesthesia with intraperitoneal pentobarbital. For the fixation, 0.1 M phosphate buffer was perfused, followed by a 4% PFA solution (a solution of 4% paraformaldehyde (Nacalai Tesque) in 0.1 M phosphate buffer). After the perfusion-fixation, the lumbar enlargement of the spinal cord was dissected, immersed in a 4% PFA solution and further fixed for 6 hours. The 4% PFA solution was replaced with a solution of 30% sucrose (Nacalai Tesque) in 0.1 M phosphate buffer before incubation with agitation at 4° C. for two consecutive days. The lumbar cord tissue was embedded in OCT compound (Sakura Finetek Japan Co., Ltd.), frozen and sliced to a thickness of 20 μm with a cryostat, and the resulting section was mounted onto a slide glass (Matsunsmi Glass Ind., Ltd.). The specimen was immersed in a 5% BSA solution (a solution of 5% BSA (bovine serum albumin, Sigma-Aldrich) in 0.1 M phosphate buffer) at room temperature for 2 hours. The 5% BSA solution was replaced with a 5% BSA solution containing a primary antibody, and the reaction was allowed to proceed at 4° C. for two consecutive days. […] After washing with 0.1 M phosphate buffer 3 times, the specimen was coverslipped with a mounting medium and then observed under a fluorescence microscope. […]

[2] = tested on: glial cells or immune cells in the spinal cord; experiment: Immunostaining of Iba1, GFAP, CD3ε and CD45R in lumbar cord tissue after intrathecal netrin-4; type: in vivo, rat; details: lumbar cord tissue 48 hours after intrathecal administration, vs physiological saline
Method: as §3

male Wistar rat = experiment: von Frey filament test after intrathecal administration of netrin-4 to rats; type: in vivo
Method: as §1, §2
In order to clarify the function of netrin-4 in the spinal cord in an in vivo setting, the change in nociceptive response after intrathecal administration of netrin-4 was examined. First, a polyethylene tube was inserted into the medullary cavity of an 8-week-old male Wistar rat. One week after the intubation, the von Frey filament test was conducted to confirm, the absence of intubation-caused motor dysfunction. Ten microliters of a netrin-4 solution (40 ng/μL) was infused from the rear end of the tube retained in the medullary cavity. Meanwhile, the same volume of physiological saline was administered to each animal of the control group. The von Frey filament test was conducted at 12, 24 and 48 hours after the administration to examine the change in withdrawal threshold.
Ten microliters of a netrin-4 solution (40 ng/μL), a 10% netrin-4 solution (4 ng/μL) , a 1% netrin-4 solution (0.4 ng/μL) or a thermally denatured netrin-4 solution (prepared by heat treatment of a netrin-4 solution (40 ng/μL) at 100° C. for 10 minutes) was administered in the same manner as in Experiment 1, and the degree of the change in withdrawal threshold from before to 24 hours after the administration was calculated.

CC(C)(c1ccc(NS(=O)(=O)C(F)(F)F)cc1)c1ccc(C(C)(C)c2ccc(NS(=O)(=O)C(F)(F)F)cc2)cc1 [PTPi4, bis(4-trifluoromethylsulfonamidophenyl)-1,4-diisopropylben zene]
change in withdrawal threshold after administration of mixture with netrin-4 (SHP2): reduction in withdrawal threshold was observed in the group of administration of netrin-4 alone, but not | degree of reduction in withdrawal threshold at 24 hours after administration (SHP2): significantly curbed

O=S(=O)(O)c1ccc2cc(N=Nc3cc(S(=O)(=O)O)c4cccnc4c3O)ccc2c1 [NSC87877]
change in withdrawal threshold after administration of mixture with netrin-4 (SHP2): reduction in withdrawal threshold was observed in the group of administration of netrin-4 alone, but not | degree of reduction in withdrawal threshold at 24 hours after administration (SHP2): significantly curbed

B1: netrin-4: purified netrin-4 protein (R&D) dissolved in physiological saline (protein, UniProt Q9HB63 19-628, looked up)
Netrin-4: GLSGVAGVSSRCEKACNPRMGNLALGRKLWADTTCGQNATELYCFYSENTDLTCRQPKCDKCNAAYPHLAHLPSAMADSSFRFPRTWWQSAEDVHREKIQLDLEAEFYFTHLIVMFKSPRPAAMVLDRSQDFGKTWKPYKYFATNCSATFGLEDDVVKKGAICTSKYSSPFPCTGGEVIFKALSPPYDTENPYSAKVQEQLKITNLRVQLLKRQSCPCQRNDLNEEPQHFTHYAIYDFIVKGSCFCNGHADQCIPVHGFRPVKAPGTFHMVHGKCMCKHNTAGSHCQHCAPLYNDRPWEAADGKTGAPNECRTCKCNGHADTCHFDVNVWEASGNRSGGVCDDCQHNTEGQYCQRCKPGFYRDLRRPFSAPDACKPCSCHPVGSAVLPANSVTFCDPSNGDCPCKPGVAGRRCDRCMVGYWGFGDYGCRPCDCAGSCDPITGDCISSHTDIDWYHEVPDFRPVHNKSEPAWEWEDAQGFSALLHSGKCECKEQTLGNAKAFCGMKYSYVLKIKILSAHDKGTHVEVNVKIKKVLKSTKLKIFRGKRTLYPESWTDRGCTCPILNPGLEYLVAGHEDIRTGKLIVNMKSFVQHWKPSLGRKVMDILKRECK
number of c-fos-positive cells in the dorsal horn of the spinal cord [1]: increased as compared with that in the control group | cell morphology and spinal distribution of Iba1, GFAP, CD3ε and CD45R positive cells [2]: No remarkable difference | change in withdrawal threshold (von Frey filament test) (male Wistar rat; intrathecal 10 μL of 40 ng/μL, 12, 24 and 48 hours after administration): significant reduction in the netrin-4-administered rats versus the control group at 12, 24 and 48 hours after the administration; also recorded: reduction in withdrawal threshold was observed | degree of change in withdrawal threshold from before to 24 hours after administration (male Wistar rat; intrathecal 10 μL of 1% netrin-4 solution (0.4 ng/μL)): no significant reduction was observed | degree of change in withdrawal threshold from before to 24 hours after administration (male Wistar rat; intrathecal 10 μL of 10% netrin-4 solution (4 ng/μL)): reduction in withdrawal threshold was observed

B2: thermally denatured netrin-4: netrin-4 solution (40 ng/μL) heat-treated at 100° C. for 10 minutes (protein, UniProt Q9HB63 19-628, looked up)
Netrin-4: B1 Netrin-4
modifications: heat-denatured
notes: netrin-4 solution (40 ng/μL) heat-treated at 100° C. for 10 minutes
degree of change in withdrawal threshold from before to 24 hours after administration (male Wistar rat; intrathecal 10 μL of 40 ng/μL solution heat-treated at 100° C. for 10 minutes): did not reduce the withdrawal threshold
